# Target: human CD300a expressed on Hek293T cells (HekCD300a) (human)
# Assay: cell-based or functional assay
substance,measurement,value
goat polyclonal antibody to CD300a (AF2640),inhibition of DV2 JAM infection of HekCD300a cells (flow cytometry),80%

# — patent US20170000849A1, “CD300A RECEPTORS AS VIRUS ENTRY COFACTORS” (INSTITUT NATIONAL DE LA SANTE ET DE LA RECHERCHE MEDICALE …, priority 2013, published 2017)
